Changes are numbered by the printed parent chain. Blank lines part the entries; values can stand above or below the binder they belong to.
Key:
[1] = molecular target: T1, SLC34A2 peptide fragment (peptide 1) (human, biotinylated (site not stated)); experiment: ELISA, biotinylated antigen on NeutrAvidin plate, anti-human Fc-HRP
T1 construct: ELISA antigen captured on NeutrAvidin plates; also called SLC34A2 peptide immunogen
T1 peptide: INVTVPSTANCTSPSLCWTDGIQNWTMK

[2] = molecular target: T2, ECL-mFc fusion protein (human SLC34A2 ECL2 fused to murine Fc) (human, biotinylated (site not stated)); experiment: as above
T2 construct: The range 234-362 is the ECL2 part counted on human SLC34A2; also called mECL2-Fc protein
T2 chain: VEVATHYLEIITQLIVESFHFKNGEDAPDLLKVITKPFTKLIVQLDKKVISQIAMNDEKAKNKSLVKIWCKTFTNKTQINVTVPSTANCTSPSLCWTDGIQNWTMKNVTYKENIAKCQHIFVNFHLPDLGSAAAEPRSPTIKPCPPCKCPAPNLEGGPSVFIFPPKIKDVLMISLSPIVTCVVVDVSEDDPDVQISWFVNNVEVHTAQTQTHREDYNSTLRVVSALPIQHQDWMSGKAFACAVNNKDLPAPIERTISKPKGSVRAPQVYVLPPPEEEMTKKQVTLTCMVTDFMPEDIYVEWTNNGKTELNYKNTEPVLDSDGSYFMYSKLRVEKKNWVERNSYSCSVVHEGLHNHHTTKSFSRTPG

[3] = molecular target: T3, Human Solute Carrier Family 34 Member 2 (SLC34A2) (human, UniProt O95436 1-690); experiment: flow cytometry on OVCAR-3 cells (endogenous human SLC34A2), hIgG1/kappa, 8 five-fold dilutions from 133 nM;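 further: binding read as geometric mean fluorescence intensity, with non-transfected HEK293 cells serving as the negative control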
T3 construct: Endogenous on OVCAR-3 cells; engineered on 786-O cells in the CAR kinetics assay; also called NaPi2b; NPT2B
T3 sequence: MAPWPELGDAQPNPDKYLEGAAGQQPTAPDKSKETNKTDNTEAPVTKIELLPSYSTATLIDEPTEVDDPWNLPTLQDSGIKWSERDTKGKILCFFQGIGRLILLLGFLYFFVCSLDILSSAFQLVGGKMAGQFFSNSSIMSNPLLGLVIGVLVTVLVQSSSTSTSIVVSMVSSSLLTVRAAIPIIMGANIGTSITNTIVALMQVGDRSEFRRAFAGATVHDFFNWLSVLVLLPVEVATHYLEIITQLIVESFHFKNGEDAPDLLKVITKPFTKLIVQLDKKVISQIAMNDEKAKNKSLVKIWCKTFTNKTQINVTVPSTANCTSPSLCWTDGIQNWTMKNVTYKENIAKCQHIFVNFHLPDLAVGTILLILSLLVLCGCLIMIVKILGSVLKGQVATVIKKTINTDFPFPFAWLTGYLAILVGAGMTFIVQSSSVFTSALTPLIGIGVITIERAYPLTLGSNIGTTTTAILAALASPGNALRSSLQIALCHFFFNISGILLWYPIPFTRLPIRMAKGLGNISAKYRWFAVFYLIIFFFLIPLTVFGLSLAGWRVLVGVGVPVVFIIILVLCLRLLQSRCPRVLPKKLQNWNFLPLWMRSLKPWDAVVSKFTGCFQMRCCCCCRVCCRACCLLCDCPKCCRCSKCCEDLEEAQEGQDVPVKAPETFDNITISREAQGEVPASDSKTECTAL

B1: SLC34A2 Ab 13 (antibody, human IgG1, kappa, V domains shown)
VH: QVQLVESGGGLVQPGRSLRLSCIGSGFTFGEYAMSWVRQAPGKGLEWVGFIRTKPYGGTTEFAASVKGRFTMSRDDSKSIAYLEMNSLKTEDTAVYYCTLIPALRFLEWLPWGQGTLVTVSS
VL: EIVLTQSPSSLSASVGDRVTVTCRANQDINNYLAWYQQTPGKVPKLLIYAASTLQSGVPSRFSGSGSGTDFTLTISSLQPEDVATYYCQNYYSVPWTFGQGTKLEIKR
notes: recombinant hIgG1/kappa from TAP products in Expi293
binding result [1]: binds
binding result [2]: binds
EC50 [3]: 41 nM
Max Signal by flow cytometry [3]: 233

B2: SLC34A2 Ab 9 (antibody, human IgG1, kappa, V domains shown)
VH: QVQLVESGGGLVQPGRSLRLSCSGSGFTSGDYAVSWVRQAPGKGLEWVGFIRTKPYGETTEYAASVKGRFTISRDDSKSIAYLQMNSLKAEDTAVFYCTFIPVSRFLEWLPWGQGIPVTVSS
VL: B1 VL with E1D, V3Q, L4M, S14F, V21I, N26S, N30G, G41E, L104V
notes: recombinant hIgG1/kappa
EC50 [3]: 37 nM
Max Signal by flow cytometry [3]: 281

B4: SLC34A2 Ab 7 (antibody, human IgG1, kappa, V domains shown)
VH: QVQLQESGPELVKPSETLSITCTVSGGSISSRSYYWGWIRQPPGKGLEWIGSIYYGGSTYYNPSLKSRVTISADTSKNQFSLKLNSVTAADTAVFYCVRHPAGYSTRWSAFDIWGQGTMVTVSS
VL: EIVLTQSPSSLSASVGDRVTITCRASQSISSYLNWYQQKPGRAPELLIYAASSLQSGVPSRFSGSGSGTDFTLTISSLQPEDFATYYCQQSFSSLTFGQGTRLEIKR
notes: as for B1
binding result [1]: binds
binding result [2]: binds
EC50 [3]: 16 nM
Max Signal by flow cytometry [3]: 278

B6: SLC34A2 Ab 14 (antibody, human IgG1, kappa, V domains shown)
VH: QVQLQESGPGLVKPSETLSLTCTVSGGSVSSGSYYWSWIRQPPGKGLEWIGYIFYSGSTYYNPSLKSRVTISVDTSKNQFSLKLTSVTAADTAVYFCARWMTTVKGYFDYWGQGTLVTVSS
VL: EIVLTQSPDFQSVTPKESVTITCRASQSVGSGLHWYQQKPDQSPKLLIKYASQSFSGVPSRFSGSGSGTDFTLTINSLEAEDAATYYCLQSSSLPWTFGQGTKVEIKR
notes: recombinant hIgG1/kappa
binding result [1]: binds
binding result [2]: binds
EC50 [3]: 9 nM
Max Signal by flow cytometry [3]: 288

B7: SLC34A2 Ab 2 (antibody, human IgG1, kappa, V domains shown)
VH: B6 VH with P42A, F54Y, T59N, T85R, S86A, F96Y, V104I
VL: B6 VL with S18K, A80T, Y87F, L89Q
notes: as for B1
binding result [1]: binds
binding result [2]: binds
EC50 [3]: 7 nM
Max Signal by flow cytometry [3]: 330

B8: SLC34A2 Ab 1 (antibody, human IgG1, kappa, V domains shown)
VH: B6 VH with S33N, Y34F, F54Y, T85R, V87L, F96Y, T103K
VL: B6 VL with S18K, A80V, Y86F
notes: as for B1
binding result [1]: binds
binding result [2]: binds
EC50 [3]: 7 nM
Max Signal by flow cytometry [3]: 353

B10: SLC34A2 Ab 15 (antibody, human IgG1, kappa, V domains shown)
VH: QVQLQESGPGLVKPSETLSLTCTVSGGSVSSASYYWSWIRQPPGKGLEYIGYIYYSGSTYYNPSLKSRVTISIDTSKNQFSLNLRSVTAADTAVYYCARYIVGRPGFNWFDPWGQGTLVTVSS
VL: DIQMTQSPSSLSASVGDRVTITCRASQSISSYLNWYQQKPGKAPKFLISPASSLQSGVPSRFSGSGSGTDFTLTISSLQPEDFATYYCQQSYSIPWTFGQGTKVEIKR
notes: recombinant hIgG1/kappa
EC50 [3]: 8 nM
Max Signal by flow cytometry [3]: 346

B13: SLC34A2 Ab 10 (antibody, human IgG1, kappa, V domains shown)
VH: QVQLLESGGGLVQPGASLRLSCAASGFTFSTYAMTWVRQAPGKGLEWVSGINGGGDTTYYADSVKGRFTISRDNSKNTLYLQMNSLRAEDTAVYYCAVRGYTYGYFFDYWGQGTLVTVSS
VL: DIQMTQSPSSLSASVGDRVTITCRASQGISNYLAWYQQRPGKVPKLLIYAASTLRSGVPSRFSGSGSGTDFTLTISSLQPEDVATYYCQKYNSAPLTFGGGTKVEIKR
notes: recombinant hIgG1/kappa
EC50 [3]: 20 nM
Max Signal by flow cytometry [3]: 218

B14: SLC34A2 Ab 6 (antibody, human IgG1, kappa, V domains shown)
VH: QVQLLESGGGLVQPGGSLRLSCAASGFTFSSSAMAWVRQAPGKGLEWVSAISSSGDNTYYADSVKGRFTISRDTSKNTLSLQMSSLRAEDTAIYYCAKQGTNWGLYFDYWGQGTLVTVSS
VL: B13 VL with T22A, G28V, R39K, A50V, R55Q, K90N, L96W, G100Q, V104L
notes: recombinant hIgG1/kappa
binding result [1]: no binding
EC50 [3]: 6 nM
Max Signal by flow cytometry [3]: 211

Continued by falling EC50 [3], values first:

EC50 [3]: 6 nM
Max Signal by flow cytometry [3]: 354
B5: SLC34A2 Ab 8 (antibody, human IgG1, kappa, V domains shown)
VH: QVQLQESGPGLVKPSETLSLTCTVSGGSISSRSYYWGWIRQPPGKGPEWIGSIYYSGSTFYNPSLKSRVTISEDTSKSQFSLKVTSVTAADTAVYYCARHPAGYSSSWSAFDIWGQGTMVTVSS
VL: B4 VL with Q38L, R42K, E45K, Q55H, E81A, S91A, F92Y, S93I
notes: as for B1

EC50 [3]: 6 nM
Max Signal by flow cytometry [3]: 224
B9: SLC34A2 Ab 11 (antibody, human IgG1, kappa, V domains shown)
VH: QVQLQESGPGLVKPSETLSLTCTVSGGSISSSSYYWGWIRQPPGKGLEWIGSLYYSGSTYYNPSLKSRVTISVDTSKNQFSLKLNSVTAADTAVYYCTRHPRGIAARWGNWFDPWGQGTLVTVSS
VL: EIVLTQSPSSLSASVGDRLTITCRASQTISSYLNWYQQKPGKAPKVLIYAASSLQSGVPSRFSGSGSGTDFTLTISSLQPEDFATYYCQQSFIIPYTFGQGTKLEIKR
notes: as for B1

EC50 [3]: 6 nM
Max Signal by flow cytometry [3]: 296
B12: SLC34A2 Ab 16 (antibody, human IgG1, kappa, V domains shown)
VH: B10 VH with G27D, A32V, Y49W, Y54W, N83K
VL: B10 VL with S28T, F46L, S53N, S93I
notes: recombinant hIgG1/kappa

binding result [1]: binds
binding result [2]: binds
EC50 [3]: 5 nM
Max Signal by flow cytometry [3]: 305
B3: SLC34A2 Ab 12 (antibody, V domains shown)
VH: QVQLQESGPGLVKPSETLSLTCTVSGGSISSSSYYRGWIRQPPGKGLEWIGSIYYSGSTYYNPSLKSRVTISVDTSKNQFSLKLSSVTAADTAVYYCARHPRGSYGANFDYWGQGTLVTVSS
VL: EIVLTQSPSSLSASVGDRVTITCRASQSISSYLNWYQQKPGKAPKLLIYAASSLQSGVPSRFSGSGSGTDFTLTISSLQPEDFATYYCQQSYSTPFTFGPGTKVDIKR
notes: as for B1

binding result [1]: no binding
EC50 [3]: 5 nM
Max Signal by flow cytometry [3]: 271
B11: SLC34A2 Ab 5 (antibody, human IgG1, kappa, V domains shown)
VH: QVQLQESGPGLVKPSETLSLTCSVSGGSISSSSYYWGWIRQPPGKGLEWIGSIDYSGSTYYNPSLKSRVTISIDTSKNQFSLRLSSVTAAEKAVYYCARHGRGTIGYFDYWGQGTLVTVSS
VL: B10 VL with F46L, S49Y, P50A, Q55L, S56T, S63T, A84G, I94P, W96L, Q100G
notes: recombinant hIgG1/kappa

binding result [1]: no binding
binding result [2]: binds
EC50 [3]: 5 nM
Max Signal by flow cytometry [3]: 277
B15: SLC34A2 Ab 4 (antibody, human IgG1, kappa, V domains shown)
VH: QVQLLESGGGLVQPGGSLRLSCAASGFTFSSYAMNWVRQAPGKGLEWVSAISGGVGNTYYADSVKGRFTISRDNSKNTLYLQMNSLRAEDTAVYYCTKDGPLWGNYFDYWGRGTLVTVSS
VL: B13 VL with D1E, Q3V, M4L, R39K, K45N, A50T, R55Q, L96F, G100P, E105D
notes: as for B1

Reference: patent US20250297255A1 (ARSENAL BIOSCIENCES, published 2025)
